Assay results reported in patent US20180327803A1.

Key:
[1] = target: human serum-derived IgA polyclonal antibody (#I4036; Sigma-Aldrich) (human); assay: SPR, lysate, human IgA chip
[2] = target: human IgG4 antibody (#I4639; Sigma-Aldrich) (human); assay: ELISA
[3] = target: human IgG1 antibody (#I5154; Sigma-Aldrich) (human); assay: ELISA
[4] = target: human serum-derived IgA polyclonal antibody (#I4036; Sigma-Aldrich) (human); assay: ELISA
[5] = target: human IgG2 antibody (#I5404; Sigma-Aldrich) (human); assay: ELISA
[6] = target: human IgG3 antibody (#I5654; Sigma-Aldrich) (human); assay: ELISA
[7] = target: human serum-derived IgG polyclonal antibody (#I4506; Sigma-Aldrich) (human); assay: SPR, lysate, human IgG chip
[8] = target: human serum-derived IgG polyclonal antibody (#I4506; Sigma-Aldrich) (human); assay: ELISA
[9] = target: human IgG1 antibody (#I5154; Sigma-Aldrich) (human); assay: SPR, single cycle kinetics, IgG1 chip
[10] = target: human serum-derived IgG polyclonal antibody (#I4506; Sigma-Aldrich) (human); assay: scFv-immobilized HiTrap NHS column

Binder | koff [1] [s⁻¹] | OD [2] | OD [3] | OD [4] | OD [5] | OD [6] | koff [7] [s⁻¹] | OD [8] | Kd [9] [nM] | koff [9] [s⁻¹] | kon [9] [M⁻¹ s⁻¹] | amount of IgG adsorbed to the column and eluted [10] [mg] | percent of supplied IgG adsorbed to the column and eluted [10] [%]
R3-8 (scFv, not shown: small tags and cut ends) scFv: QSLEESGGRLVTPGTPLTLTCTVSGIDLSSNAMTWVRQAPGEGLEWIGTISTGGSTYFASWAKGRFTISKTSTTVDLKITSPTTEDTATYFCATRYDSYGYAYNYWFGTLWGPGTLVTVTSGGGGSGGGGSGGGGSELVMTQTAASVSEPVGGTVTINCQASQSISDELAWYQQKPGQRPKLLIYDASDLASGVPSRFSGSGSGTEFTLTISGVQCDDAATYYCQSAYYDGRYVYAFGGGTEVEVTGS |  | 3.09 | 3.03 | 3.06 | 3.02 | 3.06 | 0.00088 | 3.01 |  |  |  |  | 
R3-26 rabbit-derived single-chain antibody-His (scFv) scFv: QEQLVESGGGLVKPGGTLTLTCTVSGIDLSSYAMSWVRQVPGKGLEWIGIIGSGGGTAYANWAKGRFTISKTSSTTVDLKMTSLTTEDTATYFCATDYGIYGYAYGHLWGPGTLVTVTSGGGGSGGGGSGGGGSELVMTQTASPVSAAVGGTVTIKCQASQSISTALAWYQQRPGQPPKLLIYDASTLASGVSSRFKGSGSGTEFTLTISDLECADAATYYCQTYFGSDTDNAFGEGTEVEITGSHHHHHH |  |  |  |  |  |  |  |  | 2.1 | 4.3e-05 | 21000 | 5.3 | 53

Other lines, results leading:

koff [1] [s⁻¹] | OD [2] | OD [3] | OD [4] | OD [5] | OD [6] | koff [7] [s⁻¹] | OD [8] | Kd [9] [nM] | koff [9] [s⁻¹] | kon [9] [M⁻¹ s⁻¹] | amount of IgG adsorbed to the column and eluted [10] [mg] | percent of supplied IgG adsorbed to the column and eluted [10] [%] | Binder
9.88e-05 | 3.07 | 3.09 | 3 | 3.07 | 3.02 |  |  |  |  |  |  |  | IgA R3-1 (scFv, not shown: small tags and cut ends) scFv: QSVKESGGRLVTPGTPLTLTCTVSGIDLSSNAMSWVRQAPGEGLEWIGTISTVGKTYFASWAKGRFTISKTSTTVDLRITSPTTEDTATYFCATRYDSYGYAYNYWFGTLWGPGTLVTVTSGGGGSGGGGSGGGGSELDLTQTPPSVSGAVGGTVTIKCQASENINSELAWYQQKPGQRPKLLIYDASKLASGVPSRFSGSGSGTEYTLTISGMQCDDAATYYCQSTYYDGNYVYAFGGGTEVDVTRS
 | 3.11 | 3.05 | 3.06 | 3.04 | 3.12 | 0.000278 | 3.01 |  |  |  |  |  | R3-75 (scFv, not shown: small tags and cut ends) scFv: QSVKESGGRLVTPGTPLTLTCTVSGIDLSSNAMSWVRQAPGEGLEWIGTISTVGKTYFASWAKGRFTISKTSTTVDLRITSPTTEDTATYFCATRYDSYGYAYNYWFGTLWGPGTLVTVTSGGGGSGGGGSGGGGSELDLTQTPPSVSGAVGGTVTIKCQASENINSELAWYQQKPGQRPKLLIYDASKLASGVPSRFSGSGSGTEYTLTISGMQCDDAATYYCQSTYYDGNYVYAFGGGTEVDVTRS
0.000181 | 3.08 | 3.09 | 3.03 | 3.09 | 2.99 |  |  |  |  |  |  |  | IgA R3-18 (scFv, not shown: small tags and cut ends) scFv: QSLEESGGRLVTPGTPLTLTCTVSGIDLSSNAMTWVRQAPGEGLEWIGTISTGGSTYFASWAKGRFTISKTSTTVDLKITSPTTEDTATYFCATRYDSYGYAYNYWFGTLWGPGTLVTVTSGGGGSGGGGSGGGGSELVMTQTAASVSEPVGGTVTIKCQASQNINNELAWYQQKPGQRPKLLIYDASKLASGVPSRFSGSGSGTEFTLTISGMQCDDAATYYCQSTYYDGNYVYAFGGGTEVDVKGS
